In patent US20250319180A1:

Biological target: human LY6H expressed on 293T cells (plasmid BBP491, M1-P140 plus Myc-DDK) (human) (UniProt O94772)
Assay: on-cell affinity by flow cytometry: unconjugated 12G7 (0.05-100 nM) competes with 1 nM PE-conjugated 12G7 on 293T cells expressing human LY6H; table row 293T-huLY6H

Kd: 9.9 nM
B1: 12G7 (antibody, V domains shown)
VH: QVQLQQWGAGLLKPSETLSLTCAVYGGSFSGYYWSWIRQPPGKGLEWIGEINHSGSTYYNPSLKSRVTMSVDTSKNQFSLKLSSVTAADTAVYYCAKRWELGAFDIWGQGTMVTVSS
VL: DIQMTQSPSSLSASVGDRVTITCRASQGISNYLAWYQQKPGKVPKLLIYAASTLQSGVPSRFSGSGSGTDFTLTISSLQPEDVATYYCQKYNSAPRTFGQGTKLEIK
